# Test results from patent US20250320281A1.
# What was measured:
# [1] = molecular target: HIV-1 Env of pseudovirus isolate MGRM-G-009 (HIV-1); assay: cell-based or functional assay
# [2] = molecular target: HIV-1 APV6 Env (pseudovirus) (HIV-1); assay: cell-based or functional assay
# [3] = molecular target: HIV-1 Env of isolate MGRM-C-025 (HIV-1); assay: cell-based or functional assay
# [4] = molecular target: HIV-1 Env of isolate MGRM-C-001 (HIV-1); assay: cell-based or functional assay
# [5] = molecular target: HIV-1 MGRM-D-018 Env (pseudovirus) (HIV-1); assay: cell-based or functional assay
# [6] = molecular target: HIV-1 MGRM-C-028 Env (pseudovirus) (HIV-1); assay: cell-based or functional assay
# [7] = molecular target: HIV-1 MGRM-C-027 Env (pseudovirus) (HIV-1); assay: cell-based or functional assay
# [8] = molecular target: envelope of aMLV pseudovirus (negative control); assay: cell-based or functional assay
# [9] = molecular target: HIV-1 Env of pseudovirus isolate MGRM-G-006 (HIV-1); assay: cell-based or functional assay
# [10] = molecular target: HIV-1 JRCSF Env (pseudovirus) (HIV-1) (UniProt P20871); assay: cell-based or functional assay
# [11] = molecular target: HIV-1 MGRM-A-010 Env (pseudovirus) (HIV-1); assay: cell-based or functional assay
# [12] = molecular target: HIV-1 92UG005 Env (pseudovirus) (HIV-1); assay: cell-based or functional assay
# [13] = molecular target: HIV-1 Env of isolate MGRM-C-015 (HIV-1); assay: cell-based or functional assay
# [14] = molecular target: HIV-1 Env of isolate MGRM-C-020 (HIV-1); assay: cell-based or functional assay
# [15] = molecular target: HIV-1 Env of isolate MGRM-C-008 (HIV-1); assay: cell-based or functional assay
# [16] = molecular target: HIV-1 Env of isolate MGRM-C-013 (HIV-1); assay: cell-based or functional assay
# [17] = molecular target: HIV-1 NL43 Env (pseudovirus) (HIV-1); assay: cell-based or functional assay
# [18] = molecular target: HIV-1 MGRM-C-026 Env (pseudovirus) (HIV-1); assay: cell-based or functional assay
# [19] = molecular target: HIV-1 Env of isolate MGRM-C-023 (HIV-1); assay: cell-based or functional assay
# [20] = molecular target: HIV-1 Env of isolate MGRM-C-002 (HIV-1); assay: cell-based or functional assay
# [21] = molecular target: HIV-1 Env of isolate MGRM-C-022 (HIV-1); assay: cell-based or functional assay
# [22] = molecular target: HIV-1 Env of isolate MGRM-C-005 (HIV-1); assay: cell-based or functional assay
# [23] = molecular target: HIV-1 Env of isolate MGRM-C-024 (HIV-1); assay: cell-based or functional assay
# [24] = molecular target: HIV-1 92UG024 Env (pseudovirus) (HIV-1); assay: cell-based or functional assay
# [25] = molecular target: HIV-1 Env of pseudovirus isolate MGRM-G-013 (HIV-1); assay: cell-based or functional assay
# [26] = molecular target: HIV-1 Env of isolate MGRM-C-006 (HIV-1); assay: cell-based or functional assay
# [27] = molecular target: HIV-1 Env of pseudovirus isolate MGRM-G-015 (HIV-1); assay: cell-based or functional assay
# [28] = molecular target: HIV-1 Env of isolate MGRM-C-009 (HIV-1); assay: cell-based or functional assay
# [29] = molecular target: HIV-1 Env of isolate MGRM-C-007 (HIV-1); assay: cell-based or functional assay
# [30] = molecular target: HIV-1 Env of pseudovirus isolate MGRM-G-016 (HIV-1); assay: cell-based or functional assay
# [31] = molecular target: HIV-1 Env of pseudovirus isolate MGRM-G-004 (HIV-1); assay: cell-based or functional assay
# [32] = molecular target: HIV-1 Env of pseudovirus isolate MGRM-G-019 (HIV-1); assay: cell-based or functional assay
# [33] = molecular target: HIV-1 94UG103 Env (pseudovirus) (HIV-1); assay: cell-based or functional assay
# [34] = molecular target: HIV-1 Env of isolate MGRM-C-012 (HIV-1); assay: cell-based or functional assay
# [35] = molecular target: HIV-1 Env of isolate MGRM-C-019 (HIV-1); assay: cell-based or functional assay
# [36] = molecular target: HIV-1 Env of pseudovirus isolate MGRM-G-014 (HIV-1); assay: cell-based or functional assay
# [37] = molecular target: HIV-1 Env of isolate MGRM-C-010 (HIV-1); assay: cell-based or functional assay
# [38] = molecular target: HIV-1 CMU02 Env (pseudovirus) (HIV-1); assay: cell-based or functional assay
# [39] = molecular target: HIV-1 Env of isolate MGRM-C-017 (HIV-1); assay: cell-based or functional assay
# [40] = molecular target: HIV-1 92TH021 Env (pseudovirus) (HIV-1); assay: cell-based or functional assay
# [41] = molecular target: HIV-1 Env of pseudovirus isolate MGRM-G-027 (HIV-1); assay: cell-based or functional assay
# [42] = molecular target: HIV-1 Env of pseudovirus isolate MGRM-G-001 (HIV-1); assay: cell-based or functional assay
# [43] = molecular target: HIV-1 92RW020 Env (pseudovirus) (HIV-1); assay: cell-based or functional assay
# [44] = molecular target: HIV-1 Env of isolate MGRM-C-004 (HIV-1); assay: cell-based or functional assay
# [45] = molecular target: HIV-1 Env of isolate MGRM-C-014 (HIV-1); assay: cell-based or functional assay
# [46] = molecular target: HIV-1 Env of pseudovirus isolate MGRM-G-011 (HIV-1); assay: cell-based or functional assay
# [47] = molecular target: HIV-1 93IN905 Env (pseudovirus) (HIV-1); assay: cell-based or functional assay
# [48] = molecular target: HIV-1 Env of pseudovirus isolate MGRM-G-017 (HIV-1); assay: cell-based or functional assay
# WT JR-FL gp120 (HIV-1) = assay: ELISA, antigen-coated wells
substance,measurement,setting,value
5123_A06 (PGT-125) (antibody),"IC50 (µg/mL), pseudovirus neutralization",[1],> 50 µg/mL
same,neutralization IC50 (pseudovirus),[2],0.0359 µg/mL
same,neutralization IC50,[3],42.5 µg/mL
same,neutralization IC50,[4],> 50 µg/mL
same,neutralization IC50 (pseudovirus),[5],0.0382 µg/mL
same,neutralization IC50 (pseudovirus),[6],5.78 µg/mL
same,neutralization IC50 (pseudovirus),[7],> 10 µg/mL
same,"IC50 (µg/mL), pseudovirus neutralization",[8],> 50 µg/mL
same,"IC50 (µg/mL), pseudovirus neutralization",[9],> 50 µg/mL
same,neutralization IC50 (pseudovirus),[10],0.006 µg/mL
same,neutralization IC50 (pseudovirus),[11],0.0055 µg/mL
same,neutralization IC50 (pseudovirus),[12],> 10 µg/mL
same,neutralization IC50,[13],> 50 µg/mL
same,neutralization IC50,[14],> 50 µg/mL
same,neutralization IC50,[15],> 50 µg/mL
same,neutralization IC50,[16],> 50 µg/mL
same,neutralization IC50 (pseudovirus),[17],> 10 µg/mL
same,neutralization IC50 (pseudovirus),[18],0.0106 µg/mL
same,neutralization IC50,[19],1.31 µg/mL
same,neutralization IC50,[20],0.008 µg/mL
same,neutralization IC50,[21],1.23 µg/mL
same,neutralization IC50,[22],2.09 µg/mL
same,neutralization IC50,[23],> 50 µg/mL
same,neutralization IC50 (pseudovirus),[24],> 10 µg/mL
same,"IC50 (µg/mL), pseudovirus neutralization",[25],> 50 µg/mL
same,neutralization IC50,[26],0.015 µg/mL
same,"IC50 (µg/mL), pseudovirus neutralization",[27],> 50 µg/mL
same,neutralization IC50,[28],> 50 µg/mL
same,neutralization IC50,[29],> 50 µg/mL
same,"IC50 (µg/mL), pseudovirus neutralization",[30],> 50 µg/mL
same,"IC50 (µg/mL), pseudovirus neutralization",[31],> 50 µg/mL
same,"IC50 (µg/mL), pseudovirus neutralization",[32],> 50 µg/mL
same,neutralization IC50 (pseudovirus),[33],0.0124 µg/mL
same,neutralization IC50,[34],> 50 µg/mL
same,neutralization IC50,[35],0.13 µg/mL
same,"IC50 (µg/mL), pseudovirus neutralization",[36],0.007 µg/mL
same,neutralization IC50,[37],> 50 µg/mL
same,neutralization IC50 (pseudovirus),[38],> 10 µg/mL
same,neutralization IC50,[39],2.36 µg/mL
same,neutralization IC50 (pseudovirus),[40],0.0066 µg/mL
same,"IC50 (µg/mL), pseudovirus neutralization",[41],34.4 µg/mL
same,"IC50 (µg/mL), pseudovirus neutralization",[42],0.033 µg/mL
same,neutralization IC50 (pseudovirus),[43],0.0028 µg/mL
same,neutralization IC50,[44],1.82 µg/mL
same,neutralization IC50,[45],> 50 µg/mL
same,"IC50 (µg/mL), pseudovirus neutralization",[46],> 50 µg/mL
same,neutralization IC50 (pseudovirus),[47],0.0137 µg/mL
same,"IC50 (µg/mL), pseudovirus neutralization",[48],> 50 µg/mL
same,EC50,WT JR-FL gp120 (HIV-1),0.2 µg/mL
4838_L06 (PGT-121) (antibody),"IC50 (µg/mL), pseudovirus neutralization",[1],0.02 µg/mL
same,neutralization IC50,[3],46.8 µg/mL
same,neutralization IC50,[4],17.5 µg/mL
same,"IC50 (µg/mL), pseudovirus neutralization",[8],> 50 µg/mL
same,"IC50 (µg/mL), pseudovirus neutralization",[9],> 50 µg/mL
same,neutralization IC50 (pseudovirus),[12],> 10 µg/mL
same,neutralization IC50,[13],25.1 µg/mL
same,neutralization IC50,[14],> 50 µg/mL
same,neutralization IC50,[15],0.012 µg/mL
same,neutralization IC50,[16],7.23 µg/mL
same,neutralization IC50 (pseudovirus),[17],> 10 µg/mL
same,neutralization IC50,[19],0.017 µg/mL
same,neutralization IC50,[20],0.019 µg/mL
same,neutralization IC50,[21],0.015 µg/mL
same,neutralization IC50,[22],0.015 µg/mL
same,neutralization IC50,[23],0.052 µg/mL
same,neutralization IC50 (pseudovirus),[24],> 10 µg/mL
same,"IC50 (µg/mL), pseudovirus neutralization",[25],3.99 µg/mL
same,neutralization IC50,[26],0.017 µg/mL
same,"IC50 (µg/mL), pseudovirus neutralization",[27],> 50 µg/mL
same,neutralization IC50,[28],> 50 µg/mL
same,neutralization IC50,[29],0.196 µg/mL
same,"IC50 (µg/mL), pseudovirus neutralization",[30],> 50 µg/mL
same,"IC50 (µg/mL), pseudovirus neutralization",[31],0.115 µg/mL
same,"IC50 (µg/mL), pseudovirus neutralization",[32],0.011 µg/mL
same,neutralization IC50,[34],0.123 µg/mL
same,neutralization IC50,[35],> 50 µg/mL
same,"IC50 (µg/mL), pseudovirus neutralization",[36],0.009 µg/mL
same,neutralization IC50,[37],> 50 µg/mL
same,neutralization IC50 (pseudovirus),[38],> 10 µg/mL
same,neutralization IC50,[39],0.009 µg/mL
same,neutralization IC50 (pseudovirus),[40],> 10 µg/mL
same,"IC50 (µg/mL), pseudovirus neutralization",[41],0.124 µg/mL
same,"IC50 (µg/mL), pseudovirus neutralization",[42],0.004 µg/mL
same,neutralization IC50,[44],0.011 µg/mL
same,neutralization IC50,[45],26.9 µg/mL
same,"IC50 (µg/mL), pseudovirus neutralization",[46],3.17 µg/mL
same,"IC50 (µg/mL), pseudovirus neutralization",[48],0.004 µg/mL
same,EC50,WT JR-FL gp120 (HIV-1),0.2 µg/mL
